Results from publication PMC11737055.

Molecular target: TDP-43 (UniProt Q921F2)
Assay: anti-GFP co-IP, anti-RFP Western blot
Settings: reference: GFP-FMRP wild type; sites S499

FMRP (from UniProt P35922) GFP-FMRP S499A
binding against the reference: weaker
